Test [1] concerns the target T1, B7H3 (human, UniProt Q5ZPR3 29-466).
T1 chain: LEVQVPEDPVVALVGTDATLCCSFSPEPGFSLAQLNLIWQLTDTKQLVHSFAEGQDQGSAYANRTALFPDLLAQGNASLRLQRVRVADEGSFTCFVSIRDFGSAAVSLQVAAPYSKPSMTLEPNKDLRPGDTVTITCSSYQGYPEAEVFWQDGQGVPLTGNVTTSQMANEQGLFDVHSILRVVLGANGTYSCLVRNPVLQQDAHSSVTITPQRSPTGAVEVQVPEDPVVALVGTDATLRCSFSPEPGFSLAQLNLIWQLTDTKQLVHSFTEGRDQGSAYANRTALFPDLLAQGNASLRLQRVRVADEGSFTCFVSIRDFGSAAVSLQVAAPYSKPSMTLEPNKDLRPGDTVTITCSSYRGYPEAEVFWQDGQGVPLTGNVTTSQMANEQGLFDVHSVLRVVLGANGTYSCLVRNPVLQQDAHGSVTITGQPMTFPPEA
Nature of the test: -; monovalent, 1+1 bispecific format.

Test [2] has as its target XENP38100 (1D2B4). Nature of the test: Octet. For orientation: Biolayer interferometry detects binding as a change in optical thickness at a sensor tip.
The target of test [3] is XENP38100 (1D2B4). Nature of the test: Octet. This is another data set of the same source.
For test [4], the target named is T2, NKG2D (human, UniProt P26718 78-216).
T2 chain: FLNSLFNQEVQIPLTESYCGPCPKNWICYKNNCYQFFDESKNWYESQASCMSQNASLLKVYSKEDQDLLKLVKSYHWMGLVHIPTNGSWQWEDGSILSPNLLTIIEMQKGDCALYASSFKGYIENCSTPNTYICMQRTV

Where two headings read alike, the source gives them in different places.

B1: 2E4A3_H1.22_L1 (antibody, V domains shown)
VH: QVQLVQSGAEVKKPGASVKVSCKASGYIFTNNYMHWVRQAPGQGLEWMGIISPSVGRTAYAQKFQGRVTMTRDTSTSTVYMELSSLRSEDTAVYYCARGGGSSPRLDYWGQGTLVTVSS
VL: not shown
Turning to B1, in test [1], the Kd (usually the equilibrium constant for the complex coming apart) was 6.1 nM.

B2: cynomolgus NKG2D (receptor)
chain: FLNSLFNQEVQIPLTESYCGPCPKNWICYKNNCYQFFNESKNWYESQASCMSQNASLLKVYSKEDQDLLKLVKSYHWMGLVHIPTNGSWQWEDGSILSPNLLTIIEMQKGDCALYASSFKGYIENCSIPNTYICMQRTV
Molecule B2 yielded a Kd in test [2] of 5.05 nM.

B3: human NKG2D (Fc fusion)
chain: FLNSLFNQEVQIPLTESYCGPCPKNWICYKNNCYQFFDESKNWYESQASCMSQNASLLKVYSKEDQDLLKLVKSYHWMGLVHIPTNGSWQWEDGSILSPNLLTIIEMQKGDCALYASSFKGYIENCSTPNTYICMQRTV
On to B3, for which, in test [3], binding was put at a Kd of 10.4 nM.

B4: XENP40557 B7H3 Fab x NKG2D scFv (mAb-scFv) (antibody)
chain 1: EVQLLESGGGLVQPGGSLRLSCAVSGFSLSSYGVIWVRQAPGKGLEYVSWVSSGGSTNYASSVKGRFTISRDTSKNTVYLQMNSLRAEDTAVYFCARGATNSGTDIWGPGTLVTVSSASTKGPSVFPLAPSSKSTSGGTAALGCLVKDYFPEPVTVSWNSGALTSGVHTFPAVLQSSGLYSLSSVVTVPSSSLGTQTYICNVNHKPSDTKVDKKVEPKSCDKTHTCPPCPAPPVAGPSVFLFPPKPKDTLMISRTPEVTCVVVDVKHEDPEVKFNWYVDGVEVHNAKTKPREEEYNSTYRVVSVLTVLHQDWLNGKEYKCKVSNKALPAPIEKTISKAKGQPREPQVYTLPPSREEMTKNQVSLTCDVSGFYPSDIAVEWESDGQPENNYKTTPPVLDSDGSFFLYSKLTVDKSRWEQGDVFSCSVMHEALHNHYTQKSLSLSPGK
chain 2: not shown
chain 3: DIVMTQSPSSLSASVGDRVTITCRASQSINSWLSWYQQKPGKPPKLLIYGASNLASGVPSRFKGSGSGTDFTLTISSLQPEDFATYYCQNNYGIIAAGATFGGGTKVEIKRTVAAPSVFIFPPSDEQLKSGTASVVCLLNNFYPREAKVQWKVDNALQSGNSQESVTEQDSKDSTYSLSSTLTLSKADYEKHKVYACEVTHQGLSSPVTKSFNRGEC
On to B4, for which the dissociation constant Kd in test [4] came out at 28.8 nM.

B5: XENP40376 B7H3 Fab x NKG2D scFv (1+1) (antibody)
chain 1: EVQLLESGGGLVQPGGSLRLSCAVSGFSLSSYGVIWVRQAPGKGLEYVSWVSSGGSTNYASSVKGRFTISRDTSKNTVYLQMNSLRAEDTAVYFCARGATNSGTDIWGPGTLVTVSSASTKGPSVFPLAPSSKSTSGGTAALGCLVKDYFPEPVTVSWNSGALTSGVHTFPAVLQSSGLYSLSSVVTVPSSSLGTQTYICNVNHKPSDTKVDKKVEPKSCDKTHTCPPCPAPPVAGPSVFLFPPKPKDTLMISRTPEVTCVVVDVKHEDPEVKFNWYVDGVEVHNAKTKPREEEYNSTYRVVSVLTVLHQDWLNGKEYKCKVSNKALPAPIEKTISKAKGQPREPQVYTLPPSREEMTKNQVSLTCDVSGFYPSDIAVEWESDGQPENNYKTTPPVLDSDGSFFLYSKLTVDKSRWEQGDVFSCSVMHEALHNHYTQKSLSLSPGK
chain 2: not shown
chain 3: DIVMTQSPSSLSASVGDRVTITCRASQSINSWLSWYQQKPGKPPKLLIYGASNLASGVPSRFKGSGSGTDFTLTISSLQPEDFATYYCQNNYGIIAAGATFGGGTKVEIKRTVAAPSVFIFPPSDEQLKSGTASVVCLLNNFYPREAKVQWKVDNALQSGNSQESVTEQDSKDSTYSLSSTLTLSKADYEKHKVYACEVTHQGLSSPVTKSFNRGEC
Take B5: in test [4], the Kd was 7.72 nM.

B6: 38E2_H2_L1.1 (antibody, V domains shown)
VH: EVQLLESGGGLVQPGGSLRLSCAVSGFSLSSYGVIWVRQAPGKGLEYVSWVSSGGSTNYASSVKGRFTISRDTSKNTVYLQMNSLRAEDTAVYFCARGATNSGTDIWGPGTLVTVSS
VL: DIVMTQSPSSLSASVGDRVTITCRASQSINSWLSWYQQKPGKPPKLLIYGASNLASGVPSRFKGSGSGTDFTLTISSLQPEDFATYYCQNNYGIIAAGATFGGGTKVEIK
For the molecule B6, binding in test [1] was characterised by a dissociation constant (Kd) of 0.5 nM.
